{"source": "paper PMC3437440", "origin": "cited, not measured here", "molecular_target": "IgG1 Fc Fc (Homo sapiens) [IgG part: P01857]"}
{"substance": "FcγRIIIa (Val158 variant) (from UniProt P08637)", "values": [{"measurement": "Kd", "value": 100, "unit": "nM"}]}
